Legend:
Format in all cases: biochemical
Pfu DNA polymerase [1] = target: T1, Pfu DNA polymerase (Pyrococcus furiosus, UniProt P61875); test: 0.9 kb α1-antitrypsin PCR with unrelated dU-containing or control oligonucleotide; settings: 0.8 pmole of dU containing primer; 7 ng PEF
T1 sequence (P61875 1-775): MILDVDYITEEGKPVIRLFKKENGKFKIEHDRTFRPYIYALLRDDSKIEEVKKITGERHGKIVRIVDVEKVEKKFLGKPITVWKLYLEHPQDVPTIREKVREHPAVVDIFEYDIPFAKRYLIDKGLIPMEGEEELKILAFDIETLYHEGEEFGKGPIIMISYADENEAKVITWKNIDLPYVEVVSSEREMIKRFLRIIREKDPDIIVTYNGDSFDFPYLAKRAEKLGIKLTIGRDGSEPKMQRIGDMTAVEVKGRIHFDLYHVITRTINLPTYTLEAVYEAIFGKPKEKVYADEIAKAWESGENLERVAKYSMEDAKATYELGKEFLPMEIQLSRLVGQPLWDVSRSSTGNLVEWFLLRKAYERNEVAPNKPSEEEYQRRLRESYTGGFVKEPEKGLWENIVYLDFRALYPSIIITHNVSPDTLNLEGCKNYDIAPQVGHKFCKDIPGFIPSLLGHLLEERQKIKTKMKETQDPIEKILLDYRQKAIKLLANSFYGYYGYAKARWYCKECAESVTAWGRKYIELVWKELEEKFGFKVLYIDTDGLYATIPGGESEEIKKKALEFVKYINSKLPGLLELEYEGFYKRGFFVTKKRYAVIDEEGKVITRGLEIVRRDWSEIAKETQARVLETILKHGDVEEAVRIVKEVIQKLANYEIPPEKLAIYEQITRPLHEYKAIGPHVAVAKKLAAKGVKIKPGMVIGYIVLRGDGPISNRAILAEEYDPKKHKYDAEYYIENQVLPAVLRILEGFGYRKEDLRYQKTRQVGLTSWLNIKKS

[2] = tested on: gapped-duplex calf thymus DNA; test: DNA polymerase activity, gapped-duplex calf thymus DNA assay
Experimental: Initially and as a control to confirm the activity of the DNA polymerase used, gapped-duplex calf thymus DNA (Pharmacia) assays were performed. The polymerase cocktail contained 50 mM Tris-HCl, pH 8.0, 5 mM MgCl2, 1 mM DTT, 50 μg/m BSA, 4% glycerol, 200 μM each dNTP, [^3H]TTP (0.5 mCi·μmole final concentration), and 250 μg/ml of activated calf thymus DNA (Pharmacia). Samples containing Pfu DNA polymerase or P. furiosus PEF were serially diluted in Pfu DNA polymerase storage buffer (50 mM Tris-HCl, pH 8.2, 0.1% NP-40, 0.1% Tween-20, 0.1 mM EDTA, 1 mM DTT, 50% glycerol) and then 1 μl of each dilution was added to 10 μl aliquots of polymerase cocktail. Polymerization reactions were conducted in triplicate for 30 minutes at 72° C. The extension reactions were quenched on ice, and then 5 μl aliquots were spotted immediately onto DE81 filters (Whatman). Unincorporated [^3H]TTP was removed by 6 washes with 2×SCC (0.3M NaCl, 30 mM sodium citrate, pH 7.0), followed by one wash with 100% ethanol. Incorporated radioactivity was measured by scintillation counting. The assay was calibrated by counting a known amount of [^3H]TTP on DE-81 filters, omitting the wash steps. One unit of polymerase activity is defined as the amount of enzyme which catalyzes the incorporation of 10 nmoles of total dNTP into polymeric form (binds to DE-81 paper) in 30 minutes at 72° C. […]

[3] = Reverse phase HPLC analysis, reactivity with other nucleotides
Experimental: The similarity of P45 to dCTP deaminases prompted us to test whether dCTP or other nucleotide triphosphates were substrates of PEF/P45. PEF was incubated with dCTP or dUTP and the reaction products were separated by reverse phase HPLC. Reaction mixtures (50 μl) containing 1× cloned Pfu polymerase buffer, 10 mM dCTP or dUTP, and 700 ng PEF (or 5 μl of cloned p45 (˜100 ng) or nothing (neg. control)) were incubated at 72° C. for 1 hour. The samples were injected on a […] Waters Delta-pak C-18 column (300 angstrom/15 μm), equilibrated in 50 mM triethylammonium acetate, pH (7.0) (A). Products were eluted with acetonitrile (B) at 2 ml/min. using the following gradient: 0% B for 5 minutes, 0-10% B over 20 minutes. Absorbence of the eluate was monitored with a photodiode array detector, and peak areas were integrated at 260 nm.
In addition to dUTP, dCTP was also found to serve as a substrate for PEF (FIG. 17). The product of the PEF+dCTP reaction appeared to be dCMP, based upon its retention time and absorbence maxima. Although PEF utilizes dCTP, dUTP is the preferred substrate of PEF/P45. In the example shown, only 16.6% of the dCTP was converted in 1 hour under the same conditions which converted 100% dUTP (FIG. 17, panel B). […] No reactivity with PEF was detected for the following nucleotides: dGTP, dATP, dTTP, dCMP, dUMP, and rUTP under the conditions used.

Pfu DNA polymerase [4] = target: T1, Pfu DNA polymerase; test: 0.9 kb α1-antitrypsin PCR in absence or presence of dUTP
Experimental: A relatively small (0.9 kb) fragment of the human α1-antitrypsin gene was amplified in the absence or presence of dUTP. PCR reaction mixtures contained the following (in a 100 μl volume): 1× Cloned Pfu polymerase buffer; 200 μM each, dCTP, dGTP, dATP; 200 ng oligo F91-23 (100 ng/μl); 200 ng oligo R980-23 (100 ng/μl); 125 ng Human genomic DNA; 2.5 units Pfu DNA polymerase; 200 μM total of (dTTP and dUTP) or (dTTP+PEF generated dUMP).
PCR cycling was carried out as follows: 95° C. for 1 minute (1 cycle); 95° C. for 1 minute—58° C. for 1 minute—72° C. for 2 minutes (30 cycles).
Seven ng of PEF can reverse the inhibition caused by as much as 20 μM dUTP (data not shown). The preferred amount of PEF or P45 used in a particular reaction can be optimized according to the principles provided here or by methods for quantifying amplification reactions known in the art.

B1: PEF: polymerase enhancing factor complex purified from Pyrococcus furiosus; predominant components P50 and P45 (protein)
chain 1: MLHHVKLIYATKSRKLVGKKIVXXXPGSIAALDVKACEGLIRHGAEVHAVMSEAATKIIHPYAWNLPTGNPVITEITGFIEHVELAGEHENKADLILVCPATANTISKIACGIDDTPVTTVVTTAFPHIPIMIAPAMHETMYRHPIVRENIERLKKLGVEFIGPRIEEGRAKVASIDEIVYRVIKKLHKKTLEGKRVLVTAGATREYIDPIRFITNASSGKMGVALAEEADFRGAVTLIRTKGSVKAFRIRKIKLKVETVEEMLSAIENELRSKKYDVVIMAAAVSDFRPKIKAEGKIKSGRSITIELVPXNPKIIDRIKEIQPNVFLVGFKAETSKEKLIEEGKRQIERAKADLVVGNTLEAFGSEENQVVLIGRDFTKELPKMKKRELAERIWDEIEKXLS
chain 2: MLLPDWKIRKEILIEPFSEESLQPAGYDLRVGREAFVKGKLIDVEKEGKVVIPPREYALILTLERIKLPDDVMGDMKIRSSLAREGVIGSFAWVDPGWDGNLTLMLYNASNEPVELRYGERFVQIAFIRLEGPARNPYRGNYQGSTRLAFSKRKKL
modifications: not fully specified; X: residue not identified in the source
notes: polymerase enhancing factor complex purified from Pyrococcus furiosus; predominant components P50 and P45
- amplification in reactions containing dU oligo with PEF (Pfu DNA polymerase [1]): a small amount of amplification product is observed
- DNA polymerase activity (in words) [2]: no significant DNA polymerase activity
- reactivity with dGTP, dATP, dTTP, dCMP, dUMP, rUTP [3]: No reactivity
- prevention of dUTP inhibition (Pfu DNA polymerase [4]; added to PCR reactions containing dUTP): completely prevented
- dUTP concentration whose inhibition is reversed (Pfu DNA polymerase [4]; seven ng of PEF, as much as, data not shown): 20 µM
